# Data: patent US9549967B2, “Regulation of sodium channels by PLUNC proteins” (The University of North Carolina at Chapel Hill, priority 2009, dated 2017)
# B1: SPLUNC1: human SPLUNC1, 256 amino acid secreted PLUNC protein (SEQ ID NO:1); rSPLUNC1 = V5/6His-tagged protein purified from HEK293 media (protein, listed as Homo sapiens)
# chain: MFQTGGLIVFYGLLAQTMAQFGGLPVPLDQTLPLNVNPALPLSPTGLAGSLTNALSNGLLSGGLLGILENLPLLDILKPGGGTSGGLLGGLLGKVTSVIPGLNNIIDIKVTDPQLLELGLVQSPDGHRLYVTIPLGIKLQVNTPLVGASLLRLAVKLDITAEILAVRDKQERIHLVLGDCTHSPGSLQISLLDGLGPLPIQGLLDSLTGILNKVLPELVQGNVCPLVNEVLRGLDITLVHDIVNMLIHGLQFVIKV
# modifications: V5/6His tag
# notes: rSPLUNC1 = V5/6His-tagged protein purified from HEK293 media
# Target: T1, ENaC (Homo sapiens, UniProt P37088+P51168+P51170)
# T1 construct: endogenous in cells; host or cells: primary human bronchial epithelial cultures
# T1 sequence (P37088 1-669): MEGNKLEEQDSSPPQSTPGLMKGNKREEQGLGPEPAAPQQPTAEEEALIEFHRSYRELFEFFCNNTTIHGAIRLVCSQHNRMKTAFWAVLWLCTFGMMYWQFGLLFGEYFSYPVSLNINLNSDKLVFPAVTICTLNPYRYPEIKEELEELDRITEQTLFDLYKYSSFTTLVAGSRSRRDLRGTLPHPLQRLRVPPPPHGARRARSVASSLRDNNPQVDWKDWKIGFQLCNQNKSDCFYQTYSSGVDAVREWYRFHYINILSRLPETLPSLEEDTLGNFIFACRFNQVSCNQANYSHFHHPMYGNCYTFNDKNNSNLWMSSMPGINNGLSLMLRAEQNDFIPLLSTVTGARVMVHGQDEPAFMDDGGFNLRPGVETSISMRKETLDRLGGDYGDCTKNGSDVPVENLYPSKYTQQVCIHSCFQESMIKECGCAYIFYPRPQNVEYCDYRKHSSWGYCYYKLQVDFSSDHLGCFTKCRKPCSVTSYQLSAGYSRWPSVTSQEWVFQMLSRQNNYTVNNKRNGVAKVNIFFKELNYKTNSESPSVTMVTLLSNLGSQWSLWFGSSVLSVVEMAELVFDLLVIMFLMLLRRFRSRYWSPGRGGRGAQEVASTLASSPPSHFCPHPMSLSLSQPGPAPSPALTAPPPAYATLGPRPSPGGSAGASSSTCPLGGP
# T1 sequence (P51168 1-640): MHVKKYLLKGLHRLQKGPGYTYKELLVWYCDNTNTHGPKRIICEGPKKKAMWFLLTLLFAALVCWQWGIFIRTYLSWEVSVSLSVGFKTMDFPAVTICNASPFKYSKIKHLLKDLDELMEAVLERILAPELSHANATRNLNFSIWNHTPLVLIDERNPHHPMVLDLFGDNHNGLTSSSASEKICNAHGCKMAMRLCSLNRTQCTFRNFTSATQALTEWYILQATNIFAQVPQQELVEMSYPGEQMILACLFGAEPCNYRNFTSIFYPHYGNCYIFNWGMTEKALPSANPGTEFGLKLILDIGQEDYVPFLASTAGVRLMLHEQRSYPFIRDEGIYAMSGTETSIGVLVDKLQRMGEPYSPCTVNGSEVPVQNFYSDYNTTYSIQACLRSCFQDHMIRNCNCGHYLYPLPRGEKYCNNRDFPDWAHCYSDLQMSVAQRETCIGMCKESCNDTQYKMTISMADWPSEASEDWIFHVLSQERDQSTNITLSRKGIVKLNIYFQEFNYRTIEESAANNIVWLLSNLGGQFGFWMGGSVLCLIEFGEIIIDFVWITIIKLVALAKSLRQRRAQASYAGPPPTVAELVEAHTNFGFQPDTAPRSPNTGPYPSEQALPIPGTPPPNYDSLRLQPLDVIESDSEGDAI
# T1 sequence (P51170 1-649): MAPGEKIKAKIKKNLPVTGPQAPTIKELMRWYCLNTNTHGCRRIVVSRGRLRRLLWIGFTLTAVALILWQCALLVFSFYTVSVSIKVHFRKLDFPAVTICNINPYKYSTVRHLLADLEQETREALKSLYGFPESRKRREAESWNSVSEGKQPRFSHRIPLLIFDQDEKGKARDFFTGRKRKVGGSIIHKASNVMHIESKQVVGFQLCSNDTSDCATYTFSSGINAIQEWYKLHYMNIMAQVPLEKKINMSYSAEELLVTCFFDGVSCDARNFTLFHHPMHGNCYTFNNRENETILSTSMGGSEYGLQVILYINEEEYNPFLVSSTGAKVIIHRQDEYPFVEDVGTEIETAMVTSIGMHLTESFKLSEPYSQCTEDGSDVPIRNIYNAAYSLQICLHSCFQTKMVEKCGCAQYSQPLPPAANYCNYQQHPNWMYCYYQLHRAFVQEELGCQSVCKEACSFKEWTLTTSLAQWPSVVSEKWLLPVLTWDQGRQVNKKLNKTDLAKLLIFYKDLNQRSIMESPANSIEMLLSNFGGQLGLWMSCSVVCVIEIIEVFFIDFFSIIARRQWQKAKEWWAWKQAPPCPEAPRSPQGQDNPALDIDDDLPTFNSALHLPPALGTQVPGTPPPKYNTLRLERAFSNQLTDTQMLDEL
# Experiment: Transepithelial electrical resistance of human bronchial epithelial cultures (EVOM)
# Type: cell-based
# Conditions: washed cultures; 50 ng/ml SPLUNC1 for 30 min or amiloride; effects not additive
# Text: Tissue procurement and cell culture: Cells were harvested by enzymatic digestion from human bronchial tissue as previously described under a protocol approved by the UNC School of Medicine IRB (Tarran et al., J. Gen. Physiol. 127:591 (2006)). Human excess donor lungs and excised recipient lungs were obtained at the time of lung transplantation from portions of main stem or […] bronchi and cells were harvested by enzymatic digestion. All preparations were maintained at an air-liquid interface in a modified bronchial epithelial medium and used 2-5 weeks after seeding on 12 mm T-Clear inserts (Corning Costar) coated with human placental type VI collagen (Sigma). Phosphate buffered saline (PBS) was used for washing human bronchial epithelial culture mucosal surfaces.
# Microelectrode studies. A single-barreled potential difference-sensing electrode was placed in the airway surface liquid by micromanipulator and used in conjunction with a macroelectrode in the serosal solution to measure transepithelial voltage using a voltmeter (World Precision Instruments). […] Transepithelial resistance was routinely measured using the EVOM system (WPI) as previously described (Tarran et al., J. Gen. Physiol. 127:591 (2006)).
molecule,measurement,value
B1,increase of the transepithelial electrical resistance,~33%
